Patent US20170369576A1 (UBI US, published 2017)
Several values for one entry are separate records, joined by “and”; a condition that tells them apart may be missing. Equal values may be shown once.

How the values were obtained:
[1] = molecular target: T1, human CD4, membrane-bound on cells (HPB-ALL cells, blood/PBMC CD4+ T cells, assay target cells) (human, UniProt P01730 26-458); assay: binding to human CD4 positive T cells (FIG. 21)
T1 construct: whole, on cells; Target on human HPB-ALL T-leukemic cells, human blood CD4+ T lymphocytes and CD4+ indicator cells of the neutralisation assays; also called CD4 receptor; surface CD4

[2] = molecular target: T1, human CD4, membrane-bound on cells …; assay: FACS, fresh blood CD4+ T cells of subject F1; bound dB4 detected by goat anti-hIgG-FITC
From the text: (§1) The samples were calibrated with reference beads for fluorescence reading.

[3] = molecular target: T1, human CD4, membrane-bound on cells …; assay: FACS direct binding to HPB-ALL cells, on ice 1 h, goat F(ab)2 anti-huIgG Fc-FITC; EC50 by % MFI, exp. 1
Method: (§2) On V-bottomed microplates, aliquots of 2×10⁵ cells in 0.1 mL per well were added, centrifuged, and liquid discarded. […] This step was repeated one more time. The cells from the three incubations (passages) were investigated. […] The cells were washed once and the liquid discarded after centrifugation. To each well, aliquots of 200 μL of binding buffer were added and transferred to microdilution tubes for flow cytometric analysis. The binding intensity (mean fluorescence intensity, MFI), based on an inlet of 5,000 cells per sample, was read on FACS.
(§3) The absolute MFI values were also normalized to % MFI for purpose of between-passage comparison.

[4] = molecular target: T1, human CD4, membrane-bound on cells …; assay: FACS, fresh blood CD4+ T cells of subject M2; free CD4 sites left by dB4 detected by dB4C7-Alexa (250 ng/mL)
[5] = molecular target: T1, human CD4, membrane-bound on cells …; assay: FACS, fresh blood CD4+ T cells of subject M1; bound dB4 detected by goat anti-hIgG-FITC
From the text: as §1

[6] = molecular target: T1, human CD4, membrane-bound on cells …; assay: FACS, fresh blood CD4+ T cells of subject F2; free CD4 sites left by dB4 detected by dB4C7-Alexa (250 ng/mL)
[7] = molecular target: T1, human CD4, membrane-bound on cells …; assay: FACS, fresh blood CD4+ T cells of subject F2; bound dB4 detected by goat anti-hIgG-FITC
From the text: as §1

[8] = molecular target: T1, human CD4, membrane-bound on cells …; assay: FACS, fresh blood CD4+ T cells, mean of six subjects; free CD4 sites left by dB4 detected by dB4C7-Alexa (250 ng/mL)
[9] = molecular target: T1, human CD4, membrane-bound on cells …; assay: comparison of IC50 values, competition FACS on HPB-ALL cells
[10] = molecular target: T1, human CD4, membrane-bound on cells …; assay: saturation binding to HPB-ALL cells on ice 1 h; free antibody by ELISA, bound by subtraction, curve fit; exp. 3
Method: The resultant saturating free-vs.-bound concentration profiles were analyzed on SigmaPlot by curve-fitting based on the equation, [B]=Bmax·{[F]/([F]+Kd)}, where the respective [B] and [F] stand for the bound and free concentrations.
The binding study was conducted at cold and/or under 0.05% azide to avoid a potential endocytosis of the ligand-receptor complexes. Incubation at room temperature or 37° C. could allow a reaction plateau to be reached sooner. […] The supernatants were collected for determination by ELISA of the free drug concentrations, and the bound fractions were obtained by subtraction from the total.

[11] = molecular target: T1, human CD4, membrane-bound on cells …; assay: FACS direct binding to HPB-ALL cells, on ice 1 h, goat F(ab)2 anti-huIgG Fc-FITC; EC50 by MFI, exp. 1
Method: as §2, §3

[12] = molecular target: T1, human CD4, membrane-bound on cells …; assay: FACS, fresh blood CD4+ T cells of subject F3; bound dB4 detected by goat anti-hIgG-FITC
From the text: as §1

[13] = molecular target: T2, baboon CD4 on CD4 positive T cells (baboon (Papio species), UniProt A0A096MWA4 26-457); assay: binding to baboon CD4 positive T cells (FIG. 21)
T2 construct: also called baboon CD4+ T cells
T2 sequence (A0A096MWA4 entry or part of it limits assumed, form in doubt): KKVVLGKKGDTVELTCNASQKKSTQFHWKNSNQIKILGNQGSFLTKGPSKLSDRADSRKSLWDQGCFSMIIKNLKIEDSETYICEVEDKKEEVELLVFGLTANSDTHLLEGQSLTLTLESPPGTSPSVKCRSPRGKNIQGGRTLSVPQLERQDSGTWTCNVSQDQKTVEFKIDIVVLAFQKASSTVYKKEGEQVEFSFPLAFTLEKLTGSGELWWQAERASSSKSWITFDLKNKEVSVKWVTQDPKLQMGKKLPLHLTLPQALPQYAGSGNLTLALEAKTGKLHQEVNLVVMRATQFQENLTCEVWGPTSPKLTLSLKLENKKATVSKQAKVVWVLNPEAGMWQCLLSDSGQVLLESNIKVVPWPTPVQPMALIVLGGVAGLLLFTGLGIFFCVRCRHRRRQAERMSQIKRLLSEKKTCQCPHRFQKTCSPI

[14] = molecular target: T1, human CD4, membrane-bound on cells …; assay: competition FACS on HPB-ALL cells; inhibition of dB4-Alexa (250 ng/mL)
Method: (§4) On V-bottomed microplates, aliquots of 2×10⁵ cells in 0.1 mL per well were added, centrifuged, and liquid discarded. […] The cells were washed once and the liquid discarded after centrifugation. To each well, aliquots of 200 μL of binding buffer were added and transferred to microdilution tubes for flow cytometric analysis. The binding intensity (mean fluorescence intensity, MFI), based on an inlet of 5,000 cells per sample, was read on FACS.

[15] = molecular target: T1, human CD4, membrane-bound on cells …; assay: FACS, fresh blood CD4+ T cells of subject M1; free CD4 sites left by dB4 detected by dB4C7-Alexa (250 ng/mL)
[16] = molecular target: T1, human CD4, membrane-bound on cells …; assay: FACS direct binding to HPB-ALL cells, on ice 1 h, goat F(ab)2 anti-huIgG Fc-FITC; EC50 by % MFI, mean of 3
Method: as §2, §3

[17] = molecular target: T1, human CD4, membrane-bound on cells …; assay: FACS direct binding to HPB-ALL cells, on ice 1 h, goat F(ab)2 anti-huIgG Fc-FITC; EC50 by MFI, mean of 3
Method: as §2, §3

[18] = molecular target: T1, human CD4, membrane-bound on cells …; assay: FACS direct binding to HPB-ALL cells, on ice 1 h, goat F(ab)2 anti-huIgG Fc-FITC; EC50 by % MFI, exp. 3
Method: as §2, §3

[19] = molecular target: T1, human CD4, membrane-bound on cells …; assay: comparison of IC50 values of FACS competition (HPB-ALL) and ELISA competition (sCD4/p2704a)
Method: as §4

B1: mAb dB4C7 (human deimmunized, Fc-aglycosylated IgG1 derived from murine mAb B4, expressed by clone 7) (antibody, V domains shown)
VH: QVQLVQSGPELKKPGASVKVSCKASGYTFTDYVIHWVKQATGQGLEWIGEIYPGSGSAYSNAKFKDRVTMTADKSSNTAYMELSSLTSDDTAVYFCARRGNGTGFAYWGQGTLVTVSS
VL: DIVLTQSPASLAVSLGQRATITCKAGQSVDYDGDSYMNWYQQKPGQPPKLLIYVASNLESGIPARFSGSGSGTDFTLNIHPVEENDAATYYCQQSYKDPLTFGQGTKLEIKR
modifications: N-glycosylated at Asn101 in the Fv; Fc N-glycosylation site removed (N298H)
notes: treated as one molecule; also called deimmunized B4
EC50 [1]: 330 ng/mL
EC50 [2]: 4.7 ng/mL
EC50 [3]: 42.4 ng/mL
EC50 [4]: 4.6 ng/mL
EC50 [5]: 3.7 ng/mL
EC50 [6]: 6.6 ng/mL
EC50 [7]: 5.7 ng/mL
EC50 [8]: 4.7 ng/mL
fold binding affinity against gp120 MN [9]: ≥ 50 fold
Kd [10]: 0.0047 µg/mL and 0.031 nM
EC50 [11]: 42.1 ng/mL
EC50 [12]: 3.7 ng/mL
EC50 [13]: 290 ng/mL
IC50 [14]: 0.197 µg/mL and 1.8 nM
EC50 [15]: 4.8 ng/mL
EC50 [16]: 42.9 ng/mL
EC50 [17]: 42.2 ng/mL
EC50 [18]: 40.7 ng/mL
fold binding affinity, CD4-positive T cells against sCD4 [19]: > 40 fold
